Data: patent publication US20190364907
Substitutions are numbered along the chain they refer to. Numbers in names are those of the source.

B1: recombinant CMP1 LC (light chain of clostridial mosquitocidal protein 1) (protein)
chain: LQIRVFNYNDPIDGENIVELRYHNRSPVKAFQIVDGIWIIPERYNFTNDTKKVPDDRALTILEDEVFAVRENDYLTTDVNEKNSFLNNITKLFKRINSSNIGNQLLNYISTSVPYPVVSTNSIKARDYNTIKFDSIDGRRITKSANVLIYGPSMKNLLDKQTRAINGEEAKNGIGCLSDIIFSPNYLSVQTVSSSRFVEDPASSLTHELIHALHNLYGIQYPGEEKFKFGGFIDKLLGTRECIDYEEVLTYGGKDSEIIRKKIDKSLYPDDFVNKYGEMYKRIKGSNPYYPDEKKLKQSFLNRMNPFDQNGTFDTKEFKNHLMDLWFGLNESEFAKEKKILVRKHYITKQINPKYTELTNDVYTEDKGFVNGQSIDNQNFKIIDDLISKKVKL
B2: catalytically inactive CMP1 LC E209Q mutant (protein)
chain: B1 chain with E208Q

How the values were obtained:
[1] = target: An. gambiae syntaxin T264V Q265S double mutant
[2] = target: An. gambiae syntaxin L271V mutant
[3] = target: An. gambiae syntaxin M257V mutant
[4] = target: recombinant An. gambiae syntaxin1A fragment
[5] = target: An. gambiae syntaxin H252N mutant
[6] = target: An. gambiae syntaxin Q261E T262R double mutant
[7] = target: recombinant human syntaxin1A fragment, Q16623
recombinant human syntaxin1A fragment, Q16623, sequence (Q16623 whole entry, looked up, the tested form may be a part): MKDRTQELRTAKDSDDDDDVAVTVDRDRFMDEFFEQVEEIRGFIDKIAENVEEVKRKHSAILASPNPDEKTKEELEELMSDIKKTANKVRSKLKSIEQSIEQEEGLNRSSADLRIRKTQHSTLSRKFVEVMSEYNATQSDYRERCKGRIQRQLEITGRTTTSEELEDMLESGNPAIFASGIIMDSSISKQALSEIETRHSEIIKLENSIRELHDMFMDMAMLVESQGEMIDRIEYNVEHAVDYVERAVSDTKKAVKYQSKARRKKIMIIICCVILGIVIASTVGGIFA

Protein	cleavage of syntaxin mutant (Western blot) [1]	cleavage of syntaxin mutant (Western blot) [2]	cleavage of syntaxin mutant (Western blot) [3]	cleavage of recombinant SNARE protein (SDS-PAGE / Western blot) [4]	cleavage of syntaxin mutant (Western blot) [5]	cleavage of syntaxin mutant (Western blot) [6]	cleavage of recombinant SNARE protein (SDS-PAGE / Western blot) [7]
B1	Syntaxin mutants were cleaved with less efficiency than non-mutated syntaxin	the L271V mutant completely abolished cleavage	Syntaxin mutants were cleaved with less efficiency than non-mutated syntaxin	CMP1 LC cleaves the mosquito syntaxin resulting in a band of lower molecular weight that corresponds to cleavage of C-terminus of syntaxin	Syntaxin mutants were cleaved with less efficiency than non-mutated syntaxin	Syntaxin mutants were cleaved with less efficiency than non-mutated syntaxin	CMP1 LC was not able to cleave the recombinant human syntaxin1A
B2	–	–	–	no cleavage was observed by the catalytically inactive CMP1 LC E209Q mutant	–	–	–
